Biological target: CRM1 (human, recombinant, His-tagged) (human, UniProt O14980 1-1071)
Experiment: pull-down

Sequence of CRM1 (human, recombinant, His-tagged) (O14980 whole entry): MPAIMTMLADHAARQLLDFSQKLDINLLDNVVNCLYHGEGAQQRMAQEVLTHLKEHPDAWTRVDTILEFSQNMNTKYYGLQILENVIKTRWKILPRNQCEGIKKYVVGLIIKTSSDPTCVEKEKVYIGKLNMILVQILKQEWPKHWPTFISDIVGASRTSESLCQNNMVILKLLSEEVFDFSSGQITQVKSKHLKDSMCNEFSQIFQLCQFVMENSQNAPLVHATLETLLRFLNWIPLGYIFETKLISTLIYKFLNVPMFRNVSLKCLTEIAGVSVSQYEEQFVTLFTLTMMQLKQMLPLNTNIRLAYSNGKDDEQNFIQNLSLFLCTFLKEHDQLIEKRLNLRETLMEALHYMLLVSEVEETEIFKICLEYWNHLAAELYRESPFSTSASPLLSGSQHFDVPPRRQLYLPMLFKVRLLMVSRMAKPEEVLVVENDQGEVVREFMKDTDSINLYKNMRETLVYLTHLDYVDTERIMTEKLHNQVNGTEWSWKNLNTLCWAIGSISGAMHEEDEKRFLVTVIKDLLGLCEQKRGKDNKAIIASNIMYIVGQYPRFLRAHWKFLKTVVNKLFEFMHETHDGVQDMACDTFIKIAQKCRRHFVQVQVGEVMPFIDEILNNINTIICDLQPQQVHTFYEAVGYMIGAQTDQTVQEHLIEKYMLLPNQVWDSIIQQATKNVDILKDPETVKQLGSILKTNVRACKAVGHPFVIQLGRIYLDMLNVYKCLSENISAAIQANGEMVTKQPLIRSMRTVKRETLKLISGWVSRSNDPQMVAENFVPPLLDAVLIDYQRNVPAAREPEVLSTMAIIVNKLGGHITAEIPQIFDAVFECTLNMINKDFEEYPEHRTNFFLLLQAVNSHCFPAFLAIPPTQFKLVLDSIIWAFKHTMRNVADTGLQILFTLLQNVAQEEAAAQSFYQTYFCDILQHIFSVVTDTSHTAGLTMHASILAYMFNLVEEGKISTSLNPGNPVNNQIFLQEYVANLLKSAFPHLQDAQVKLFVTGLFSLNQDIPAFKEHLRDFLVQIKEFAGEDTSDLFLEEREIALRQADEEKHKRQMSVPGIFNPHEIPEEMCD

B1: GST-RAD51 F86E (natural protein, human, UniProt Q06609 1-339, looked up)
chain: MAMQMQLEANADTSVEEESFGPQPISRLEQCGINANDVKKLEEAGFHTVEAVAYAPKKELINIKGISEAKADKILAEAAKLVPMGETTATEFHQRRSEIIQITTGSKELDKLLQGGIETGSITEMFGEFRTGKTQICHTLAVTCQLPIDRGGGEGKAMYIDTEGTFRPERLLAVAERYGLSGSDVLDNVAYARAFNTDHQTQLLYQASAMMVESRYALLIVDSATALYRTDYSGRGELSARQMHLARFLRMLLRLADEFGVAVVITNQVVAQVDGAAMFAADPKKPIGGNIIAHASTTRLYLRKGRGETRICKIYDSPCLPEAEAMFAINADGVGDAKD
B1: binds.
